Molecular target: T1, MBP-Sas6 wild-type (Drosophila, UniProt Q9VAC8 1-472)
T1 construct: Sas6, Drosophila, wild type; MBP from destination vector pKM596 (Gateway); No cleavage of MBP is described; also called Sas6-wt; source: E. coli Rosetta(DE3); in lysate (pull-down); purified on amylose resin and SEC (SEC, HDX-MS)
T1 sequence (looked up): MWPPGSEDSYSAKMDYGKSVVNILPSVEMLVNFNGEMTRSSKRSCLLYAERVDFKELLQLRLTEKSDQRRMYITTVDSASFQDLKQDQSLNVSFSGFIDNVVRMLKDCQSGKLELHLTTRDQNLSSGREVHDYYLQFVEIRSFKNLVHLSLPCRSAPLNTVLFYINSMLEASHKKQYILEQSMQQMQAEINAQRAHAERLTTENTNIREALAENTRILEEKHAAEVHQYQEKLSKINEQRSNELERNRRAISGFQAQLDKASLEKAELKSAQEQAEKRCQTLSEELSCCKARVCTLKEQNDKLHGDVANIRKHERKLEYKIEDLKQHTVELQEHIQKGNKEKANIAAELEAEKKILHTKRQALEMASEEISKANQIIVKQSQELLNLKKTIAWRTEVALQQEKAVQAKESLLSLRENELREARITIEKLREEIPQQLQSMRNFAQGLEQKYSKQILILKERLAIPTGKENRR
Test: SEC; MBP-Ana2-4D mixed with MBP-Sas6, at least 1 h on ice, Superdex 200 10/300; 20 mM Tris–HCl pH 7.5, 150 mM NaCl, 1 mM DTT, 4°C
Details: both partners purified

- binding result: binds
B1: MBP-Ana2-4D (natural protein, Drosophila, UniProt Q9XZ31 1-420, looked up)
chain: MFVPETEDMLPRLAPRPSAAVPMGHTNEIIGPTVPEVSILFGQPPQDPQMQPQQPNHAHQESSPRAAPTFASWKKQMLPRVNFSPILATELGPRTAPSSNSPCSSKEYQVMPRDRNYASDAQQTTNHMNCNAGGYNAEPKQQAYQSRRLSSSSNADVLTICAGTQTDPFNPSPPRKSLPQVVYSDIDVSNLANKSDLAALVSLVESVRHEQQQLRNLCEMILEQQQRAKPEAISKASSTTGTQCDILTTNQAGRRLSPIMQDYIAEEEEPLPPPQARVIPQFPSPRPHPPIAQSTGYRANTPQAKRIPQLAKPNTEKDMVMNELALKYLRQPVDELMKDMRLGASPKSPNPEPLRPIDNIGHAQDPNDIDNADYKYLKKYRLLPEEQLEPVCPQSPMAATAPSPHIQLDLENIRNQPKLL
notes: Ana2, Drosophila; STAN motif serines 318, 365, 370 and 373 substituted by aspartic acid; MBP from destination vector pKM596; As prey against Gorab bait the MBP tag follows from the general methods of the pull-down; also called Ana2-4D-FL; source: E. coli Rosetta(DE3); purified on amylose resin and SEC (SEC, HDX-MS); in lysate (pull-down prey)
